# According to the DeepSol protein solubility set:
# Assay: soluble on expression in E. coli; label from the status in PepcDB or PDB records
row,Sequence,soluble on expression in E. coli
1,VEPDIRTGTIQDVQHVVILMQENRSFDHYFGHLNGVRGFNDPRALKRQDGKPVWYQNYKYEFSPYHWDTKVTSAQWVSSQNHEWSAFHAIWNQGRNDKWMAVQYPEAMGYFKRGDIPYYYALADAFTLCEAYHQSMMGPTNPNRLYHMSGRAAPSGDGKDVHIGNDMGDGTIGASGTVDWTTYPERLSAAGVDWRVYQEGGYRSSSLWYLYVDAYWKYRLQEQNNYDCNALAWFRNFKNAPRDSDLWQRAMLARGVDQLRKDVQENTLPQVSWIVAPYCYCEHPWWGPSFGEYYVTRVLEALTSNPEVWARTVFILNYDEGDGFYDHASAPVPPWKDGVGLSTVSTAGEIEVSSGLPIGLGHRVPLIAISPWSKGGKVSAEVFDHTSVLRFLERRFGVVEENISPWRRAVCGDLTSLFDFQGAGDTQVAPDLTNVPQSDARKEDAYWQQFYRPSPKYWSYEPKSLPGQEKGQRPTLAVPYQLHATLALDIAAGKLRLTLGNDGMSLPGNPQGHSAAVFQVQPREVGNPRFYTVTSYPVVQESGEELGRTLNDELDDLLDANGRYAFEVHGPNGFFREFHGNLHLAAQMARPEVSVTYQRNGNLQLNIRNLGRLPCSVTVTPNPAYTREGSRRYELEPNQAISEVWLLRSSQGWYDLSVTASNTEANYLRRLAGHVETGKPSRSDPLLDI,not soluble
2,VEQELATKMLQIQSKRFYLDVKQNRRGRFIKVAEIGADGRRSQIYLALSTAAEFRDHLSSFSDYYASLGPPNTDNLPEDGKLKSEMMIKDYRRYYLDLKENARGRFLRVSQTITRGGPRSQIALPAQGMIEFRDALTDLLEEFGAN,soluble
3,VGDFNYYASANWSCEQSKVLYKDEQKVPYEYLRTTGKPKGAIFGLVAEGFFTSQDEITKSPVIEGFNNIQPGDIKYKDQNNDGVINDFDKVMIGGDKPLSYFGIDLGFEWRGLEFSMFWQGVYNKDVLMSDWNLLEGFQTQGQVYGQAYENMLDRWTPETAATATFPRLSAGGNKYNQGNGWGSSFWLRSGNYIRLKNVSLGYNLPDSFCRNYLGGARVKVFVSGQNLFTKAANELVDPEVSFGNYPLQRCISTGINVKF,not soluble
4,VGDYGPFGFDPDEFDRVIREGSEGLRDAFERIGRFLSSSGAGTGWSAIFEDLSRRSRPAPETAGEAGDGVWAIYTVDADGGARVEQVYATELDALRANKDNTDPKRKVRFLPYGIAVSVLDDPVDEAQ,soluble
5,VGSEVSDKRTCVSLTTQRLPVSRIKTYTITEGSLRAVIFITKRGLKVCADPQATWVRDVVRSMDRKSNTRNNMIQTKPTGTQQSTNTAVTLTG,soluble
6,VINQVESASKVIDWPLALKRSANKADLAKEMLLGLVESLPETQLSIREAIDVQDIAQIKRLVHKLNGACCYTGTPNLAKITIQLETQLKMGLSTEELEPEFLEFFEHIEQVLFAVPEALKEMSEN,not soluble
7,VKKNVSGEPYVEGSGSNDVRTGAPIDEIDRILLDQLSRDARTPNNALAALAGIAPSTCLGRVRSLIDRGVIRGFHADIDPATLGRDLQAMIAVRVQANARQHLGQLAEQLATLDEVLNVYFIAGADDYLIHVATASSEELRRFVLDHLSAHPAVASTETILIFEHVRPRHRAPRTEQSSGR,soluble
8,VLASILLSQAAYESNYGSSLLSVKYHNIYSLPARPGQEHIYLKDNVYSKGKWQYQKVDFAVFRDWSSSMSSYLEELRQGRWGESTYKEVAGTTSYKVAAEKLQAAGFNSDPDYTKHLISIIETYNL,not soluble
9,VLGAIENVEIADIKQAFTARIDTGATTSSLNAVDLQEFERNGSQWVRFHLVNQDVKADDGKLEWITAPVIRNVKIRQATADDAERRPVVELWIKLGAIHEKVQFTLADRSHMTHSVLLGREFIQDIAVVDVSKEFVQSKK,soluble
10,VLKQGYMMKKGHRRKNWTERWFVLKPNIISYYVSEDLKDKKGDILLDENCCVESLPDKDGKKCLFLVKCFDKTFEISASDKKKKQEWIQAIHSTIHLLKLGS,soluble
11,VLTELVDLPGGSFRMGSTRFYPEEAPIHTVTVRAFAVERHPVTNAQFAEFVSATGYVTVAEQPLDPGLYPGVDAADLCPGAMVFCPTAGPVDLRDWRQWWDWVPGACWRHPFGRDSDIADRAGHPVVQVAYPDAVAYARWAGRRLPTEAEWEYAARGGTTATYAWGDQEKPGGMLMANTWQGRFPYRNDGALGWVGTSPVGRFPANGFGLLDMIGNVWEWTTTEFYPHHRIDPPSTACCAPVKLATAADPTISQTLKGGSHLCAPEYCHRYRPAARSPQSQDTATTHIGFRCVADPVSG,soluble
12,VNEIVVNPNATLDWQLALRQAAGKTDLARDMLQMLLDFLPEVRNKVEEQLVGENPEGLVDLIHKLHGSCGYSGVPRMKNLCQLIEQQLRSGTKEEDLEPELLELLDEMDNVAREASKILG,soluble
13,VPEKFKLSTALMDVLGIEVETRPRIIAAIWHYVKARKLQNPNDPSFFNCDAALQKVFGEEKLKFTMVSQKISHHLSPPPP,soluble
14,VPMHPFVKALQEHFTAHQNPEKAEPMARYMKNHFLFLGIQTPERRQLLKDIIQIHTLPDQKDFQIIIRELWDLPEREFQAAALDIMQKYKKHINETHIPFLEELIVTKSWWDSVDSIVPTFLGDIFLKHPELISAYIPKWIASDNIWLQRAAILFQLKYKQKMDEELLFWIIGQLHSSKEFFIQKAIGWVLREYAKTNPDVVWEYVQNNELAPLSKREAIKHIKQNYGINNEKIGETLS,soluble
15,VPVPPAADHKGWDFVEGYFHQFFLTKKESPLLTQETQTQLLQQFHRNGTDLLDMQMHALLHQPHCGVPDGSDTSISPGRCKWNKHTLTYRIINYPHDMKPSAVKDSIYNAVSIWSNVTPLIFQQVQNGDADIKVSFWQWAHEDGWPFDGPGGILGHAFLPNSGNPGVVHFDKNEHWSASDTGYNLFLVATHEIGHSLGLQHSGNQSSIMYPTYWYHDPRTFQLSADDIQRIQHLYGEKCSSDIP,soluble
16,VQAANLMDRIKANPVSEKNIDEKFIYNTADFSIELFKNSIDDKENSLISPLSAMLALAMTANGADNETLAQMEKALGKDISIEDLNKYLYTYMKKLPNEEKSKLTIANSIWFKENDFMPSKDFLQIIADYYKADIFKAAFDSSTVSDINNWVKSKTNGMIDKILNKIDPEDVMYLINAVAFDAEWETVYEKASVHEDIFTDVYGNRQKVEFMNSEENLYIEEENAIGFVKPYAKNHYSFVAILPDENISVNEYIKTLTGQKFIDLIKNAKITLVRASLPKFKYEYTIKMNETLESLGMTDAFLPDKADFSKLGKSDIGNLYISEVLHKTFISVDELGTKAGAVTSVDITAAGIPVNFKTVKLNRPFIFAIIDNSTNLPIFIGTVLSL,soluble
17,VRKCLSDTDCTNGEKCVQKNKICSTIVEIQRCEKEHFTIPCKSNNDCQVWAHEKICNKGCCWDLL,soluble
18,VRWIVDGMNVIGSRPDGWWRDRHRAMVMLVERLEGWAITKARGDDVTVVFERPPSTAIPSSVVEVAHAPKAAANSADDEIVRLVRSGAQPQEIRVVTSDKALTDRVRDLGAAVYPAERFRDLIDPRGSNAARRTQ,soluble
19,VSGREPSSRIIRVSVKTPQDCHEFFLAENSNVRRFKKQISKYLHCNADRLVLIFTGKILRDQDILSQRGILDGSTVHVVVRSH,soluble
20,VSSQKTSSLPKYTPKVNSSINNYIRKKNMKAPRIEEDYTSYFPKYGYRNGVGRPEGIVVHDTANDNSTIDGEIAFMKRNYTNAFVHAFVDGNRIIETAPTDYLSWGAGPYGNQRFINVEIVHTHDYDSFARSMNNYADYAATQLQYYNLKPDSAENDGRGTVWTHAAISNFLGGTDHADPHQYLRSHNYSYAELYDLIYEKYLIKTKQVAPWG,soluble
21,VSTLSKEQVKEIIKGNNFQSVADVSAYLRDIFKDIIQELLEAELEAKLGYAKDDVENKNTDNSRNGYSPKTIKSEFREVEIQVPRDRKGEFKPQIIPKYQRNVSGIEEKVIALYARGMSTRDISEQIEELYGFSLSPEMVSKITDRIAPEIKEWQQRPLEPIYTFVFMDEIH,soluble
22,VTEEEIHAMLEEGSVAGIIEQQEHEMVRNVFRLDDRQLGSLMVPRADIIYLDTALPLEENMKRVVESEHSRFPVCHNGLQSLLGVVNAKQLLAQTIKGGVTNLAEHLQPCVYVPETLTGMELLDHFRTSGTQMVFVVDEYGEIQGLVTLQDMLEAVTGEFA,not soluble
